Laboratory results taken from patent publication US20260258115A1 (MAPP BIOPHARMACEUTICAL, published 2026).

B1: ADI-41703 (antibody, V domains shown)
VH: EVQLLESGSGLVKPLQTLSLTCAVSGGSISSGGYSWSWIRQPPGKGLEWIGYIYPSGSTYYNPSLKSRVTMSIDRSKNQFSLRLTSVTAADTAVYYCARGDGNDFWSADSSHAFAIWGQGTMVTVSS
VL: EIVMTQSPGTLSLSPGERATLSCRASQIVGNSYLAWYQQKPGQAPRLLIYGASSRATGIPERFSGSGSGTDFTLTISRLEPEDFAVYHCQQYGSSPWTFGQGTKVEIK
notes: also called Ab 895; Antibody Number 895
B2: ADI-41701 (antibody, V domains shown)
VH: QVQLVQSGAEVKKPGESLKISCQASGYSFTTYWIGWVRQTPGKGLEWMGIIYPGDSDTRYTPSFQGQVTISADKSISTAYLHWSSLKASDTAMYYCARLSGGYTFGFDYWGLGTLVTVSS
VL: NFMLTQPHSVSESPGKTVTISCTRSSGNIARYYVQWYQQRPGRAPTTVIYEDDQRPSGVPDRFSGSIDRSSNSASLTISGLKTEDEADYYCQSYDASNYVFATGTKVTVL
B3: ADI-41720 (antibody, V domains shown)
VH: QVQLVESGGGVVQPGRSLRLSCAASGFTFSSYGMHWVRQAPGKGLEWVSVIWFDGSKKYYEDSVKGRFTISRDNSKNTLYLEMNSLRAEDTAVYYCAREAPVRLGELSLYGYFDYWGQGTLVTVSS
VL: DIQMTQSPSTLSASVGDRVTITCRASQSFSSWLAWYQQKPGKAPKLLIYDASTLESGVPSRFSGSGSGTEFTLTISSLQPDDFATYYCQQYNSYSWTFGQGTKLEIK
notes: also called Ab 896; Antibody Number 896
B4: ADI-41678 (antibody, V domains shown)
VH: EVQLVESGGGVVQPGGSLRLSCAASGFTFRTYGMHWVRQAPGKGLEWVAVISYDGSNKYYADSLMGRFTISRDNSKNTLYLQMNSLRAEDTAVYYCAKCFVPGSGGWYEYYFDYWGQGTLVTVSS
VL: QSVLTQPPSASGSPGQSVTISCTGTSSDVGGYNYVSWYQQHPGKAPKLMIYEVSKRPSGVPDRFSGSKSGNTASLTVSGLQAEDEADYYCSSYAGINNSVLFGGGTKLTVL
B5: ADI-41677 (antibody, V domains shown)
VH: QVTLKESGPALVKPTQTLTLTCTFSGFSLSTSRMCVSWIRQPPGKALEWLARIDWDGDIYYSTSLRTRLTISKDTSKNQVVLTMTNMDPVDTATYYCARTSIYATGGYYLYYSDYWGQGTLVTVSS
VL: EIVMTQSPSSLSASVGDRVTITCRASQSIASYVNWFQQKPGKAPKLLIYAASNVHSGVPSRFSGSGSGTGFTLTISSLQPEDSAIYYCQQSYTTPWTFGQGTKLEIK
B6: ADI-14342 (antibody, V domains shown)
VH: QVTLKESGPVLVKPTETLTLTCTVSGFSLSNAKMGVSWIRQPPGKALEWLAYISSNDEKSYSTSLKSRLTISKDTSKSQVVLTMTNMDPVDTATYYCARILLYDSSGYYLWYFDLWGRGTLVTVSS
VL: DIQVTQSPSSLSASVGDRVTITCRASQRITSYLNWYQHKPGKAPKLLIFAASSLHSGVPSTFSGSGSGTDFTLTISSLQPEDFATYYCQQSYSTPWTFGQGTKVEIK
notes: full-length IgG; also called Ab 10
B7: ADI-14353 (antibody, V domains shown)
VH: QVQLVQSGAEVKKPGSSVKVSCKASGGTFSSYTISWVRQAPGQGLEWMGRIKPIIGIANNAQRFKGRVTITAEKSTGTAYMELSSLTSEDTAVYYCARGGYDYYGMDVWGQGTTVTVSS
VL: QSALTQPASVSGSPGQSITISCTGTSSDVGGYNYVSWHQQHPGKAPKLLIYDVSNRPSGVSNRFSGSKSGNTASLSISGLQAEDEADYYCSSFTSTSTPYVFGTGTQLTVL
notes: full-length IgG; also called Ab 21
B8: ADI-14343 (antibody, V domains shown)
VH: QVQLVQSGAEVKKPGSSVKVSCKASGGTFSSYGVNWVRQAPGQGLEWMGRIIPMFGTSNYAQKFQGRVTITADGSTSTAYMELSSLRSEDTAVYYCARVGSPTTGAIMGVWGQGTTVTVSS
VL: DIVLTQTPLSLPVTPGEPASISCRSSQSLLQSNGFNYLDWYLQKPGQSPKLLIYMGSNRASGVPDRFSGSGSGTDFTLIISRVEAEDVGVYYCMQAIESPLTFGGGTKVDIK
notes: full-length IgG; also called Ab 11
B9: ADI-14359 (antibody, V domains shown)
VH: QVQLVQSGPALVKPTQTLTLTCTFSGFSLSTSGMCVSWIRQPPGKALEWLARIDWDDDKYYSTSLKTRLTISKDTSKNQVVLTMTNMDPVDTATYYCARATNYDSSGYYSLYFDYWGQGTLVTVSS
VL: not shown
notes: full-length IgG; also called Ab 27
B10: ADI-14373 (antibody, V domains shown)
VH: QVQLQQWGAGLLKPSETLSLTCAVYGGSFSGSYWSWIRQPPGKGLEWIGEINHSGSTSYNPSLKSRVTISVDTSKKQFSLKLSSMTAADTAVYYCAGGFYYDSSGSYAPHPTFDYWGQGTLVTVSS
VL: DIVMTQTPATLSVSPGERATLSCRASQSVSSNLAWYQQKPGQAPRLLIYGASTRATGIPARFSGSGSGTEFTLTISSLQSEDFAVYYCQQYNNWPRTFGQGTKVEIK
notes: full-length IgG; also called Ab 41
B11: ADI-14386 (antibody, V domains shown)
VH: EVQLVESGGGLVQPGGSLRLSCAASRFTFSSYAMSWVRQAPGKGLEWVSGIGASGGTTYYADSVKGRFTISRDNSKNTVYLQMNSLRAEDTAVYYCARCEYYYGSGSAGYYFDYWGQGTLVTVSS
VL: SYELTQPPSVSVSPGQTASITCSGDKLGSKFAFWYQQKPGQSPVLVIFQDVKRPSGIPERFSGSNSGNTATLTISGTQAMDEADYYCQAWDSGTAVFGGGTKVTVL
notes: full-length IgG; also called Ab 54
B12: ADI-14362 (antibody, V domains shown)
VH: EVQLLESGGGLVQPGGSLRLSCAASGFTFSSYAMSWVRQAPGKGLEWVSGISGSGGSTYYADSVKGRFTISRDNSKNTLYLEMNSLRAEDTAVYYCAKRYYYGSGTYTFDIWGQGTMVTVSS
VL: not shown
notes: full-length IgG; also called Ab 30
B13: ADI-14384 (antibody, V domains shown)
VH: QVQLQESGSGLVKPSQTLSLTCTVSGGSISSVGYSWSWIRQPPGKGLEWIGYIYHSGSPYYSPSLNSRVTISVDRSKNQFSLKLSSVTAADTAVYFCARVFFGGGGAFDIWGQGTTVTVSS
VL: QPGLTQPPSVSVAPGQTARITCGGNNIGSKSVQWYQQKPGQAPVLVMYYDSDRPSGIPDRFSGSSSGNTATLTITRVEAGDEADYSCQVWDSVNVHPVIFGGGTKLTVL
notes: full-length IgG; also called Ab 52
B14: ADI-14389 (antibody, V domains shown)
VH: EVQLVESGGGLVKPGGSLRLSCAASGFTFINAWMAWVRQAPGKGPEWVGRIKSRADGGTTDYAAPVKGRFTISRDDSKNRLFLQMDSLKTDDTAVYFCTTGVRALRFYNGMDVWGQGTTVTVSS
VL: ETTLTQSPSSLSASIGDRVTITCRAGQSISSFLNWYQQKPGKAPKLLIYAASTLQSGVPSRFSGSKSGTDFTLTISSLQPEDFATYYCQQSYHTFTFGPGTKVEIK
notes: full-length IgG; also called Ab 56
B15: ADI-14348 (antibody, V domains shown)
VH: QVQLVESGGGVAQPGGSLRLSCVASGFTFSNYGMHWVRQAPGKGLEWVAFIRSDGSKKYYGDSGKGRFTISRDNSKNTLYLQMNSLRAEDTALYYCARERAGATFAFDIWGQGTTVTVSS
VL: QSALTQPRSVSGSPGQSVTISCTGTSSDVGGYNFVSWYQHHPGKAPKLMIYDVTNRPSGVPDRFSGSKSGNTASLTISGLQADDEADYYCCSYAGGFTFYVFGTGTKVTVL
notes: full-length IgG; also called Ab 16
B16: ADI-14381 (antibody, V domains shown)
VH: EVQLVESGGGLVQPGGSLRLSCAASGFTFSSYSMNWVRQAPGKGLEWVSYIGSSSSSVYYGDSAKGRFTISRDNAKNSLYLQMNSLRDEDTALYYCARVGWLQYCRGGSCYASFGMDVWGQGTTVTVSS
VL: DIQMTQSPSSLSASVGDRVTITCRASQGIRNDLGWYQQKPGIAPKLLIYAASSLQSGVPSRFSGSGSGTDFTLTISSLQPEDFATYYCLQDYDSPYTFGQGTKLEIK
notes: full-length IgG; also called Ab 49
B17: ADI-22768 (antibody, V domains shown)
VH: EVQLVESGGGLVQPGGSLRLSCAASGFTFSSYEMNWVRQAPGKGLEWVSYISSSGSTIYYADSVKGRFTISRDNAKNSLYLQMNSLRAEDTAVYYCAKSYIYDSSGYYLYYFDYWGQGTLVTVSS
VL: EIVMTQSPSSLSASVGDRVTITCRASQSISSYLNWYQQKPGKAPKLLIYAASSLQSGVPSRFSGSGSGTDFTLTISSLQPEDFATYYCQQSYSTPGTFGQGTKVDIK
notes: full-length IgG
B18: ADI-22779 (antibody, V domains shown)
VH: QVQLQQWGAGLLKPSETLSLTCAVYGGSFSDYSWTWIRQPPGKGLEWIGEISHTGITNYNPSLKSRVNISVDTSKNQFSLKLSSVTAADTAVYYCARADAYDSSGYYVYYFDYWGQGTLVTVSS
VL: DIQVTQSPPSLSASVGDRVTITCRASQTIASYLNWYHQKPGKAPELLIYAASSLQSGVPSRFSGSGSGTAFTLTISSLQPEDFATYYCQQSYSAPPSFGQGTKVEIK
notes: full-length IgG
B19: ADI-22775 (antibody, V domains shown)
VH: EVQLLESGGGVVQPGRSLRLSCAASGFTFSDYGMHWVRQAPGKGLEWVAVIWYDGSYKYYADSVKGRFTISRDNSKNTLFLQMNSLRAEDTAVYYCARESLQTHDAFDIWGQGTMVTVSS
VL: DIQMTQSPSSLSASVGDRVTITCRASQGISNSLAWYQQKPGKAPKLLLYAASRLESGVPSRFSGSGSGTDYTLTINSLQPEDFATYFCQQYYSTLTWTFGQGTKVDIK
notes: full-length IgG
B20: ADI-14382 (antibody, V domains shown)
VH: EVQLLESGGGVVQPGRSLRLSCAASGFTFSAYGFHWVRQAPGKGLEWVAVIWFDGNNKYYADSMKGRFIISRDNSKNTLYLQMNSLRAEDTAVYYCARDPKETGEFDYWGQGTLVTVSS
VL: QSALTQPASVSGSPGQSITISCTGTISDVGRYNYVSWYQQHPGKAPKLMIYDVTNRPSGVSNRFSGSKSGNTASLTISGLQAEDEAVYYCCSYTISSTYVFGTGTKLTVL
notes: full-length IgG; also called Ab 50

Biological target: RSV F on RSV-A2 virus (Respiratory syncytial virus, RSV-A2, UniProt P03420 26-574)
Test: cell-based or functional assay

Binder | Neutralization IC50 (RSV subtype A) [µg/mL]
B1 | > 25
B2 | > 25
B3 | > 25
B4 | > 25
B5 | > 25

Biological target: RSV postfusion F (postF), F ΔFP (Respiratory syncytial virus, UniProt P03420 26-513)
Test: BLI, IgG on anti-human IgG sensor, 100 nM antigen

Binder | Kd [nM]
B1 | 0.843
B2 | 0.289
B3 | 1.17
B4 | 1.17
B5 | 0.339

Biological target: RSV prefusion F (preF), DS-Cav1 (Respiratory syncytial virus, UniProt P03420 26-513)
Test: BLI, IgG on anti-human IgG sensor, 100 nM antigen

Binder | Kd [nM]
B1 | 4.2
B2 | 1.93
B3 | 22
B4 | 2.92
B5 | 1.28

Biological target: RSV F on RSV subtype B virus (mKate-RSV B 18537) (respiratory syncytial virus B 18537, UniProt P13843 26-574)
Test: cell-based or functional assay

Binder | Neut IC50 subtype B [µg/mL]
B6 | 8.27
B7 | 14.6

Biological target: RSV F on RSV subtype A virus (mKate-RSV A2) (respiratory syncytial virus A2, UniProt P03420 26-574)
Test: cell-based or functional assay

Binder | Neut IC50 subtype A [µg/mL]
B6 | 1.75

Biological target: T1, RSV prefusion F (preF), subtype B (respiratory syncytial virus subtype B)
T1 construct: also called Prefusion subtype B
Test: BLI, IgG

Binder | Kd [nM]
B6 | 26.1
B8 | 38.1
B9 | 34.6
B10 | 15.9
B11 | 3.04
B12 | 119
B13 | 4.78
B14 | 81.5
B15 | 110
B7 | 12.6
B16 | 36.7
B17 | 4.57

Biological target: T2, RSV postfusion F (postF), subtype A (respiratory syncytial virus subtype A, UniProt P03420 26-513)
T2 construct: also called Postfusion subtype A; F deltaFP
Test: BLI, IgG

Binder | Kd [nM]
B6 | 0.495
B8 | 2.94
B9 | 4.11
B10 | 1.06
B11 | 1.32
B12 | 15.7
B18 | 6.2
B13 | 0.469
B19 | 30
B20 | 0.846
B14 | 22.9
B15 | 5.66
B7 | 0.26
B16 | 0.754
B17 | 3.41
